Results on two molecules are retold here after article PMC3798268, “A Minimal Nitrogen Fixation Gene Cluster from Paenibacillus sp. WLY78 Enables Expression of Active Nitrogenase in Escherichia coli”.

The target of data set [1] is T1, E. coli sigma70-RNAP holoenzyme (Escherichia coli, UniProt P0A7Z4;P0A8V2;P0A8T7;P0A800;P00579 1-329;1-1342;1-1407;2-91;1-613). Kind of data set: EMSA; EMSA: Roche DIG Gel Shift Kit, 0.03 pmol labeled DNA, buffer not stated; footprinting: binding 30 min at 25 C, DNase I 40 s at 37 C. The conditions noted are these: protein: commercial; chain copies: 2;1;1;1;1; blunt. (A gel shift assay detects complexes by their altered migration in electrophoresis.)

For data set [2], the target named is T1, E. coli sigma70-RNAP holoenzyme. Kind of data set: EMSA; reported to bind more tightly than Paenibacillus sigma70; EMSA: Roche DIG Gel Shift Kit, 0.03 pmol labeled DNA, buffer not stated; footprinting: binding 30 min at 25 C, DNase I 40 s at 37 C. To be noted: protein: commercial; chain copies: 2;1;1;1;1; label: digoxigenin (DIG Gel Shift Kit); blunt.

B1: scrambled 39 bp DNA (dsDNA)
DNA 1: GTACGGAGTATCCAGCTCCGTAGCATGCAAATCCTCTGG
DNA 2: CCAGAGGATTTGCATGCTACGGAGCTGGATACTCCGTAC
Take B1: the binding result in data set [1] was “no binding”.

B2: nifB promoter 50 bp (-47 to +3) (dsDNA)
DNA 1: GGAGAAGTGAATTGACTGTATTTGTCCCTGTCTCTAAGATGTAATTATAT
DNA 2: ATATAATTACATCTTAGAGACAGGGACAAATACAGTCAATTCACTTCTCC
B2: the binding result in data set [2] is “binds”.
